From patent publication US12697402B2, “Detection of colonic neoplasia in vivo using near-infrared peptide targeted against overexpressed cMet” (THE REGENTS OF THE UNIVERSITY OF MICHIGAN, priority 2019, dated 2026)
Entries after “also recorded” stand apart in the source; their conditions may differ. Ends that are not written are not given here.

Experiments:
mouse cMet-ECD = biological target: T1, mouse cMet-ECD (Mus musculus, UniProt P16056); test: Pull-down assay; type: binding; settings: peptide immobilized on EHS beads
T1 construct: incubated with purified mouse cMet-ECD protein (50622-M08H, Sino Biological); purchased Sino Biological 50622-M08H
T1 sequence (P16056 25-931 limits assumed): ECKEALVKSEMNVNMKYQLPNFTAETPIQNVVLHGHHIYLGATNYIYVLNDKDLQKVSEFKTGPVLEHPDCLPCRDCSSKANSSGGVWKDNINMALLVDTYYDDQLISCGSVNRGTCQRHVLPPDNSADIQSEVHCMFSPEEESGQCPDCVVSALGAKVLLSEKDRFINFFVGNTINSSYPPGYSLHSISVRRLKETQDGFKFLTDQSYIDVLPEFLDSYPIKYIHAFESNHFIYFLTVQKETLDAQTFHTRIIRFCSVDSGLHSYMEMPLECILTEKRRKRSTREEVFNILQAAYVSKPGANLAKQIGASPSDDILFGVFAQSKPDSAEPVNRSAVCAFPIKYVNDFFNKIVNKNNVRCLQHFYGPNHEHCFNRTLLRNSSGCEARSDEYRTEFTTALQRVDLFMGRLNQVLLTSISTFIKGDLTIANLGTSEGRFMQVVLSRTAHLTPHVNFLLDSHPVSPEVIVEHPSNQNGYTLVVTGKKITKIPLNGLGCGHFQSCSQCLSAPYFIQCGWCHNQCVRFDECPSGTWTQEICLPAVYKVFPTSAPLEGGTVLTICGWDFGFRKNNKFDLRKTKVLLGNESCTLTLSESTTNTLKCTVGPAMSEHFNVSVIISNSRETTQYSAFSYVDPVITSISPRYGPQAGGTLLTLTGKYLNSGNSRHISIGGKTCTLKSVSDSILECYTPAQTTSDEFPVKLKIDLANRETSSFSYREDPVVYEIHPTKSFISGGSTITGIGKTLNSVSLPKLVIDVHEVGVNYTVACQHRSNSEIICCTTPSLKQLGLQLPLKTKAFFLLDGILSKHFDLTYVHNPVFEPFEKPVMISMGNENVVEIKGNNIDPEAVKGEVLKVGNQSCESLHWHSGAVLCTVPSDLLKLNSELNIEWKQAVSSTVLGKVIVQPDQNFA
Protocol: Interactions between peptide and mouse cMet were evaluated using a pull-down assay (Paul et al., Methods 54:387-395 (2011)). Peptides were immobilized on EHS active beads (17-0906-01, GE), and incubated with purified mouse cMet-ECD protein (50622-M08H, Sino Biological). After washing, bound proteins were detected by Western blot (FIG. 18).

cMet (HT29 cells) [1] = biological target: T2, cMet (HT29 cells) (Homo sapiens, UniProt P08581); test: Competition for peptide binding with HGF; design: endogenous in cells; host or cells: HT29 (cMet+), SW480 (cMet-), HT29 with siRNA knockdown; settings: HGF 0 to 100 ng/mL; confocal microscopy
T2 sequence (P08581 25-1390): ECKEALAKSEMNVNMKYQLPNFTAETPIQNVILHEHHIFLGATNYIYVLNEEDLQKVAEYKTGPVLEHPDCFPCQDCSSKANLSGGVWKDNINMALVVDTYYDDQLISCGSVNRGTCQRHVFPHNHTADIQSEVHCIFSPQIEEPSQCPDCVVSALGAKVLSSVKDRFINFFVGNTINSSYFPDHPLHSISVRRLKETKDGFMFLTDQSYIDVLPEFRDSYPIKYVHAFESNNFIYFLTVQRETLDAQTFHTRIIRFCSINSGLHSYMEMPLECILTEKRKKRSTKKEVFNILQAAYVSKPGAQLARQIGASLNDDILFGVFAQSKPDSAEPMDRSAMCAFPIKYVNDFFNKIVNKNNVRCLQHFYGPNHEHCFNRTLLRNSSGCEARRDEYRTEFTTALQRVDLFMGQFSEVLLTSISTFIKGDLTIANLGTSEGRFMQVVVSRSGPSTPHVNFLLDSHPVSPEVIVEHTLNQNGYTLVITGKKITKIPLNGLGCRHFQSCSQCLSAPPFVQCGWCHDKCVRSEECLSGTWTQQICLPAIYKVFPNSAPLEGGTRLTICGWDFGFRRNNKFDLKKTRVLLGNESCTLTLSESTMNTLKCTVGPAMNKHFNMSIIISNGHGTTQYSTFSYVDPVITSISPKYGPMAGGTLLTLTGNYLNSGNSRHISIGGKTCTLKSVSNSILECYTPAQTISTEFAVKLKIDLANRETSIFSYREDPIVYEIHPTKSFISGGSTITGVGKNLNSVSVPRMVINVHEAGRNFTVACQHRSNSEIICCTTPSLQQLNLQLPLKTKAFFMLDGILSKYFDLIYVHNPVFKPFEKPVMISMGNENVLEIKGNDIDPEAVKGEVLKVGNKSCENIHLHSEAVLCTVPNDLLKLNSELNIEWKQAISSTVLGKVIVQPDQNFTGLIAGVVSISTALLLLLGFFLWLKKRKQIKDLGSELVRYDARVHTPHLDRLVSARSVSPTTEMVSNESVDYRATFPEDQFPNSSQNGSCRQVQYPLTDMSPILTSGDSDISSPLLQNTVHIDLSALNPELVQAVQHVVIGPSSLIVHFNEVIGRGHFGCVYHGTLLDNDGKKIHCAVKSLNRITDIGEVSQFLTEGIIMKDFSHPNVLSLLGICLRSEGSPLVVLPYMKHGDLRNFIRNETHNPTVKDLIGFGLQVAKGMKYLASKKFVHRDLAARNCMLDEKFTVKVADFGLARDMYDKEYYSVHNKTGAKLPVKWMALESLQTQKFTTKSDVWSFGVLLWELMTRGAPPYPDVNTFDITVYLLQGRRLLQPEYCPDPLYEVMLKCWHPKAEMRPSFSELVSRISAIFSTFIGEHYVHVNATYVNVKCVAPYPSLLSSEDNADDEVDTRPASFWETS
Protocol: (§1) We used a competition assay between labeled QQT*-Cy5.5 and either unlabeled QQT* or recombinant human hepatocyte growth factor (HGF, […], R&D) to validate the specific binding of QQT**-Cy5.5 to HT29 cells. Approximately 10^3 HT29 cells were grown to about 70% confluence on coverslips in triplicate. Unlabeled QQT* and either TLQ* peptide at 0, 25, 50, 100, 200 and 400 μM, or HGF at 0, 5, 10, 25, 50 or 100 ng/mL, were first added and incubated with the cells for 30 min (i.e., minutes) at 4° C. The cells were washed with 1×PBS three times and then incubated with 5 μM QQT*-Cy5.5 for another 30 min at 4° C. The cells were washed three times with 1×PBS and then fixed with 4% PFA for 10 min. The cells were washed with 1×PBS and mounted with ProLong Gold reagent containing DAPI (Invitrogen). Confocal fluorescence images were collected at each concentration using a 63× objective (Leica SP5 Inverted 2-Photon FLIM Confocal), and intensities from five cells in three independent images were quantified using custom Matlab (Mathworks, Natick, MA) software.

cMet (HT29 cells) [2] = biological target: T2, cMet (HT29 cells); test: Competition for peptide binding with unlabeled peptides; design: endogenous in cells; host or cells: HT29 (cMet+), SW480 (cMet-), HT29 with siRNA knockdown; settings: unlabeled peptide 0-400 μM, 5 μM QQT*-Cy5.5
Protocol: as §1

[3] = test system: phosphorylation of cMet, AKT and ERK1/2; test: Effect of peptide on cell signaling (Western blot); type: cell-based, human; settings: HT29 cells; 10, 30, 120 min; HGF 25 ng/mL; peptide 5 or 100 μM
Protocol: HT29 cells were treated with serum-free medium overnight for starvation before incubation with hHGF (hHGF, 294-HG-005, R&D) or peptides. Recombinant Human HGF Protein was added to HT29 cells at concentrations of 25 ng/ml for 10, 30, or 120 min in separate wells. QQT*-Cy5.5 and TLQ*-Cy5.5 were added at concentrations of 5 or 100 μM for 10, 30, and 120 min. Peptides were added at concentrations of 5 and 100 μM for 10, 30, or 120 min. Cells were then washed with 1×PBS and lysed with Pierce RIPA buffer containing Halt Phosphatase Inhibitor Cocktail (Thermo Fisher) and Halt Protease Inhibitor Cocktail (Thermo Fisher). Protein contents were quantified by Bicinchoninic Acid Assay (BCA). Anti-cMet antibody (Cell Signaling, #8198), phospho-cMet (Tyr1234/1235) antibody (Cell Signaling, #3077), anti-AKT antibody (Cell Signaling, #4691), anti-phospho-AKT antibody (Cell Signaling, #9271), anti-ERK1/2 antibody (Abcam, #ab17942), anti-phospho-ERK1/2 antibody (Abcam, #ab50011), and anti-tubulin antibody (Invitrogen, #32-2600) were used per manufacturer's instructions.

[4] = test system: flat and polyploid colonic adenomas; test: In vivo endoscopic imaging in CPC;Apc mice; settings: CPC;Apc mouse; topical / intra-rectal, 100 μM, 5 min incubation
Protocol: A CPC;Apc mouse model that can develop spontaneous adenomas in distal colon epithelium^44 was also used. Under the control of the Cdx2 promoter (CDX2P-9.5NLS-Cre), Cre recombinase can sporadically delete the adenomatous polyposis coli (APC) allele, resulting in polyploid colonic adenomas or flat lesions. We collected images from mice (n=8) that ranged in age from 7 to 10 months.
In vivo imaging was performed with approval of the University of Michigan Committee on the Use and Care of Animals. CPC;Apc mice were used for in vivo imaging. […]
(§2) A rigid small animal endoscope (Karl Sorz Veterinary Endoscopy) was inserted into the rectum (Liu et al., Gut 62:395-403 (2013)) and used to image the distal colon^45. […] The distance between the endoscope tip and the anus, and the clockwise location of polyps, were recorded. […] A ratio of the fluorescence and reflectance images was determined to correct for differences in distance and geometry over the image field-of-view (FOV) (Joshi et al., Endoscopy 48:A1-A13 (2016)). […]
The mean fluorescence intensity was used to calculate the target-to-background (T/B) ratios. Images were processed and analyzed using custom software in Matlab (Mathworks) (Joshi et al., Gastroenterology 152:1002-1013 e1009 (2017)). Matlab software was used to quantify the fluorescence intensity. […]

[5] = test system: human colon organoids (adenoma, SSA, normal); test: In vivo endoscopic imaging of patient-derived colon organoids implanted in NOD/SCID mice; settings: NOD/SCID mouse; topical administration
Protocol: Acute colitis was induced in 8-week-old NOD.Cg-Prkdcscid Il2rgtm1Wjl/SzJ mice (005557, The Jackson Laboratory)^40,41 by feeding them with 3.0% DSS (molecular weight 40,000; Cat #AAJ6360622; Alfa Aesar) dissolved in drinking water for 5 days (d). At 6 d, the donor organoids were released from the type I collagen gel, dissociated by EDTA, and washed with BSA-containing PBS as with the passage procedure. Approximately 2.5-5E5 cell aggregates in 200 μL were transplanted per mouse as previously described^42,43. Organoids were instilled into colonic lumen as a suspension by using a syringe and a thin flexible catheter 4 cm in length and 2 mm in diameter. The anal verge was glued for 6 hours after infusion to prevent luminal contents from being excreted immediately, then glue were removed by Ethanol. Mice were maintained as usual after the transplantation. The mice were housed in pathogen-free conditions and supplied water ad libitum under controlled conditions of humidity (50±10%), light (12/12 hour light/dark cycle) and temperature (25° C.). […]
as §2
The mean fluorescence intensity was used to calculate the target-to-background (T/B) ratios. Images were processed and analyzed using custom software in Matlab (Mathworks) (Joshi et al., Gastroenterology 152:1002-1013 e1009 (2017)). Matlab software was used to quantify the fluorescence intensity. The fluorescence intensity of regions of interest (ROI) was corrected by taking the ratio of fluorescence to reflectance, the fluorescence of interested region was taken as target (T), and adjacent mouse normal colon region with equal area was picked for use as background (B)^46. […]

cMet [6] = biological target: T3, cMet (Homo sapiens, UniProt P08581); test: Confocal microscopy of binding to HT29 (cMet+) versus SW480 (cMet−) cells; type: cell-based
T3 sequence (P08581 25-1390): as above
Protocol: (§3) HT29, SW480, S114 and NIH3T3 cells were inoculated in 12-well cell culture plates with circle glass coverslips to about 80% confluence. The cells were blocked with 1×PBS plus 2% BSA for 1 hour at 4° C., then were incubated with 5 μM peptides for 10 min at RT in the dark, washed thrice, and fixed with 4% PFA for 5 min, washed with 1×PBS, then mounted on glass slides with ProLong Gold reagent containing DAPI (Invitrogen, Waltham, MA). As positive control, after blocking with 2% BSA for 1 hour at 4° C., A 1:3000 dilution of primary monoclonal rabbit anti-cMet antibody (Cell Signaling Technology, #8198) was incubated with cells overnight at 4° C. Afterward, the cells were washed thrice with 1×PBS and further incubated with a 1:500 dilution of AF488-labeled secondary goat ant-rabbit immunoglobulin G antibody (Life Technologies, #A-11029) for 1 hour at RT, washed thrice, and then mounted on glass slides with ProLong Gold reagent containing DAPI. Confocal fluorescence images were collected using a 63× oil-immersion objective (Leica SP5 Inverted 2-Photon FLIM Confocal). Fluorescence intensities from five cells in two independent images were quantified using custom Matlab (Mathworks) software.

cMet [7] = biological target: T3, cMet; test: siRNA knockdown of cMet in HT29 cells, binding by confocal microscopy; type: cell-based
Protocol: as §3
We knocked down cMet protein levels with siRNAs and then evaluated the binding of QQT*-Cy5.5 and TLQ*-Cy5.5 to the surface of si-cMet-transfected HT29 cells to validate specific peptide binding. We used siRNA1 (SASI_Hs01_00133002, Sigma) for HT29, siRNA2 (SASI_WI_00000001, Sigma) for S114, and MISSION® siRNA #1 Universal Negative Control (SIC001, Sigma) for a negative control. We transfected cells with Lipofectamine 2000 (11668027, Invitrogen) per manufacturer instructions. Knockdown of cMet was confirmed by Western blot (FIG. 18). The cells were incubated with 5 μM peptide for 5 min at RT (i.e., room temperature), and then fixed and mounted on glass slides with ProLong Gold reagent containing DAPI, as previous described. […] Confocal fluorescence images were collected using a 63× oil-immersion objective (Leica SP5 Inverted 2-Photon FLIM Confocal).

cMet [8] = biological target: T3, cMet; test: Confocal microscopy of binding to S114 (cMet+) versus NIH3T3 (cMet−) cells; type: cell-based, mouse; design: expressed in transfected cells; host or cells: S114 (NIH 3T3 mouse fibroblasts transformed with human HGF/SF and Met); NIH3T3 as cMet- control; settings: 5 μM peptide
Source text: Human CRC cell lines HT29, SW480, CCD841 and mouse embryonic fibroblast cell line NIH 3T3 were obtained from the American Type Culture Collection (ATCC, Manassas, VA). The S114 cell line comprised NIH 3T3 cells transformed with human HGF/SF and Met and expressed cMet. We used McCoy's 5A Medium (Gibco) for culturing HT29 cells and Dulbecco's Modified Eagle Medium (Gibco) was used to culture SW480, NIH3T3 and S114 cells. Eagle's Minimum Essential Medium (Lonza) was used for CCD841 cells. All cells were cultured at 37° C. in 5% CO2, and supplemented with 10% fetal bovine serum (FBS). The cells were passaged using 0.25% trypsin containing EDTA (Mediatech, Manassas, VA). Cell numbers were quantitated on a hemocytometer. Peptide synthesis reagents were obtained from Anaspec (Anaspec, Fremont, CA) or AAPPTEC (AAPPTEC, Louisville, KY), were of the highest grade available (>99% purity), and were used without further purification. […]
HT29, SW480, S114 and NIH3T3 cells were inoculated in 12-well cell culture plates with circle glass coverslips to about 80% confluence. […] Confocal fluorescence images were collected using a 63× oil-immersion objective (Leica SP5 Inverted 2-Photon FLIM Confocal). Fluorescence intensities from five cells in two independent images were quantified using custom Matlab (Mathworks) software.

[9] = confocal microscopy, 5 μM peptide

| binding to mouse cMet-ECD, Western blot band (mouse cMet-ECD) | change of binding to HT29 cells with addition of HGF (cMet (HT29 cells) [1]) | mean intensity HT29 versus SW480 cells (cMet [6]) | binding to surface of HT29 cells (cMet+) (cMet [6]; [9]) | signal / binding to SW480 cells (cMet−) (cMet [6]; [9]) | intensity reduction with knockdown of cMet (cMet [7]; HT29 siCL versus sicMet) | binding to surface of control HT29 cells (cMet [7]; HT29 transfected with siCL non-targeting siRNA, confocal microscopy, 5 μM peptide) | binding to surface of S114 cells (cMet+) (cMet [8]) | signal / binding to NIH3T3 cells (cMet−) (cMet [8]) | Substance | change of QQT*-Cy5.5 fluorescence intensity on addition of unlabeled peptide (cMet (HT29 cells) [2]) | phosphorylation of cMet and downstream AKT and ERK1/2 [3] | NIR fluorescence image of flat lesion [4] | NIR fluorescence image of polyp [4] | fluorescence signal from human SSA organoid in vivo [5] | fluorescence signal from human adenoma organoid in vivo [5] | fluorescence signal from human normal organoid in vivo [5] | fluorescence intensity / binding with HT29 knockdown cells (cMet [7]; HT29 transfected with sicMet-targeting siRNA, confocal microscopy) |
| --- | --- | --- | --- | --- | --- | --- | --- | --- | --- | --- | --- | --- | --- | --- | --- | --- | --- |
| strong band | no competition | – | – | – | – | – | – | – | QQTNWSL [QQT*] | decrease significantly; also recorded: significant decrease | no change in phosphorylation | – | – | – | – | – | – |
| – | – | – | – | – | – | – | – | – | TLQWNQS (Artificial Seuqence) [TLQ*] | no significant change | – | – | – | – | – | – | – |
| – | – | 0.85 fold change | minimal binding | little binding | 0.96 fold | minimal binding | minimal binding | little binding | TLQ*-Cy5.5: scrambled control sequence TLQWNQS (SEQ ID NO:3) labeled with Cy5.5 via GGGSK linker (TLQWNQSGGGS-{K(Cy5.5)-NH2}) | – | – | little signal; also recorded: minimal signal | minimal signal | minimal signal; also recorded: little signal | little signal; also recorded: minimal signal | little signal; also recorded: minimal signal | little signal; also recorded: little binding |
